The values that follow come from doi:10.1101/2025.08.05.667158, “Antagonistic insulin mimetics lock the insulin receptor in an alternative apo-state” (bioRxiv, 2025).

The target in the test is T1, IR-A in cell membranes of human IM-9 lymphocytes (human (endogenous in IM-9), UniProt P06213-2 28-1370).
T1 construct: human insulin receptor, isoform A (IR-A); Heterotetramer (alpha alpha' beta beta') of two protomers, each cut into an alpha and a beta subunit; written as one chain for the protomer; In the functional rows this molecule stands for human IR-A stably transfected in mouse embryonic fibroblasts; also called insulin receptor; source: endogenous, cell membranes of human IM-9 lymphocytes (ATCC)
T1 sequence (P06213 other isoform, or with tags, fused parts or gaps): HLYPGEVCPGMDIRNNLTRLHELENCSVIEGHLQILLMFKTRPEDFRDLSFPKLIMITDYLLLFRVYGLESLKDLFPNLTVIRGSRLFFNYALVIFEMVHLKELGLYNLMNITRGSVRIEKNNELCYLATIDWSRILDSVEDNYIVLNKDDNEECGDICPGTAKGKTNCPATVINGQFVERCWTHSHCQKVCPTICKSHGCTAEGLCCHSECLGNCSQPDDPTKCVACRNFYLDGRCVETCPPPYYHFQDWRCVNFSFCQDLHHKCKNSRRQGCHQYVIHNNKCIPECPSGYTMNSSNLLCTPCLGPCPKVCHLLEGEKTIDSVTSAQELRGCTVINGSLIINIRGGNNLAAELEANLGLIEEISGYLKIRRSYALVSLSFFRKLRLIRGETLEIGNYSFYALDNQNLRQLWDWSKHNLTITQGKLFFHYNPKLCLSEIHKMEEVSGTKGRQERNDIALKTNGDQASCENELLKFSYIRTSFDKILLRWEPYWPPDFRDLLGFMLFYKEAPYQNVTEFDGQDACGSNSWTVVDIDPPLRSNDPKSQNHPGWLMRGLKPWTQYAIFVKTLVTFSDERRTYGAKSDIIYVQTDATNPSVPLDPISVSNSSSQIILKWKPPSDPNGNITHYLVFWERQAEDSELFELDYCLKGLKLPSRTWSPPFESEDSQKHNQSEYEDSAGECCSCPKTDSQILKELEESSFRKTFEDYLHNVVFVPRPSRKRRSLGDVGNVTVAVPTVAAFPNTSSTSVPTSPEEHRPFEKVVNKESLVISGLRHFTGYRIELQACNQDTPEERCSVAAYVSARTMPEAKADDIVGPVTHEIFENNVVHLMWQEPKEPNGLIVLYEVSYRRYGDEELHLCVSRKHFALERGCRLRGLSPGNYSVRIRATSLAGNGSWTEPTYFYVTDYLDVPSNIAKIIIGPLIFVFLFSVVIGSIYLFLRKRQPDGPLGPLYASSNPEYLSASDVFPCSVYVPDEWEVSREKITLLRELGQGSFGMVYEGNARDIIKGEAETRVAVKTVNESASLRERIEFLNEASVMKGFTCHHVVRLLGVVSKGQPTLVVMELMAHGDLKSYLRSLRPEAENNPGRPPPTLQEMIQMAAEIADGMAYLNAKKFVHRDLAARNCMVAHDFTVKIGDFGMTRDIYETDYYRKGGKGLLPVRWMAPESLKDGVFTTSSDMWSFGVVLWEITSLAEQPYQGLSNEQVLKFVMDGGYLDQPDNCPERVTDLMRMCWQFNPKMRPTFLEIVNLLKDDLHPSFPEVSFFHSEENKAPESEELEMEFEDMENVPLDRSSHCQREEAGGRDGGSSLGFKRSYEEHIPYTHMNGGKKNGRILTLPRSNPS
The experiment in a line: radioligand binding; competition with [125I]-monoiodotyrosyl-TyrA14-insulin for IR-A in cell membranes of human IM-9 lymphocytes; each curve in duplicate, Kd from at least three curves; non-linear regression for one site binding with ligand depletion. To be noted: one partner purified.

Positions of bridges follow the written chain, without caps; N, C: chain ends. Chains are numbered I, II in the order given. No end group written: not given here. adamantane scaffold = adamantane core scaffold to which the peptide C-termini are attached

B1: Trim insulin mimetic (designed binder)
peptide 1: Ac-FYDWFERQ
peptide 2: SLEEEWAQ
modifications: linker I:C-II:C via trimesic acid scaffold; not fully specified (C-terminus); also: linker at chain A 8 at chain B 8 to a chain's C-terminus via trimesic acid scaffold
notes: minimal Site-1 peptide, derived from the phage display peptides S597 and S661; minimal Site-2 peptide, derived from the phage display peptides S597 and S661; Two peptides joined through their C-termini by a trimesic acid scaffold; also called antagonist; source: synthetic (solid-phase peptide synthesis)
One may read the Kd as the concentration at which binding is half-saturated. Low readings indicate tighter binding, high ones weaker binding. B1 displayed a Kd of 1260 nM.

B2: Ada insulin mimetic (designed binder)
peptide 1: Ac-FYDWFERQ
peptide 2: SLEEEWAQ
modifications: linker I:C-II:C via adamantane scaffold; not fully specified (C-terminus); also: mixture of two diastereoisomers
notes: minimal Site-1 peptide, derived from the phage display peptides S597 and S661; minimal Site-2 peptide, derived from the phage display peptides S597 and S661; Two peptides joined through their C-termini by an adamantane scaffold; Ada is an inseparable mixture of two diastereoisomers; only one fits the cryo-EM density; also called antagonist; source: synthetic (solid-phase peptide synthesis)
Turning to B2, binding was characterised by a dissociation constant (Kd) of 395 nM.
